{
  "source": "paper PMC13543948",
  "about": "“SNX-BAR proteins 5 and 6 are required for NCOA7-AS antiviral activity against influenza A virus” (The Journal of Biological Chemistry, 2026)",
  "binders": {"B1": {"name": "MBP-tagged PX domain of SNX5 (MBP-PX-SNX5) (domain or fragment, human, UniProt Q9Y5X3 25-172, looked up)", "chain": "LNVDPSLQIDIPDALSERDKVKFTVHTKTTLPTFQSPEFSVTRQHEDFVWLHDTLIETTDYAGLIIPPAPTKPDFDGPREKMQKLGEGEGSMTKEEFAKMKQELEAEYLAVFKKTVSSHEVFLQRLSSHPVLSKDRNFHVFLEYDQDL", "notes": "Phox homology (PX) domain of human sorting nexin 5; Cloned in pMAL-p4X; also called PX-SNX5-WT; source: E. coli BL21 (DE3), purified (amylose resin, SEC)"}, "B2": {"name": "FITC conjugated NCOA7-AS peptide (NCOA7-AS-NTD-FITC) (peptide)", "peptide": "RLPLDIQIFYCARPDEEPFVKIITVEEAKRR", "modifications": "also: FITC conjugated, position not given here", "notes": "numbers count on: NCOA7-AS; Printed as NH2-...-COOH; Limits worked out from Tyr14, Gln11, Glu21 and Val24 as numbered in the structure; also called fluorescently labeled NCOA7-AS-NTD"}, "B3": {"name": "GST-tagged NCOA7-AS N-terminal domain (NCOA7-AS-NTD-GST) (domain or fragment, human, UniProt Q8NI08-5 1-53, looked up)", "chain": "MRGQRLPLDIQIFYCARPDEEPFVKIITVEEAKRRKSTCSYYEDEDEEVLPVL", "notes": "numbers count on: NCOA7-AS; source: E. coli BL21 (DE3), purified (Ni-NTA, SEC); not shown: GST, C-terminal, kept"}},
  "conditions_in_all_cases": "both partners purified",
  "key": {"[1]": {"biological_target": "T1, GST-tagged NCOA7-AS-Y14F (human, UniProt Q8NI08-5 1-219, Y14F)", "T1 construct": "source: E. coli BL21 (DE3), purified (Ni-NTA, SEC); not shown: GST, C-terminal, kept", "T1 sequence (looked up)": "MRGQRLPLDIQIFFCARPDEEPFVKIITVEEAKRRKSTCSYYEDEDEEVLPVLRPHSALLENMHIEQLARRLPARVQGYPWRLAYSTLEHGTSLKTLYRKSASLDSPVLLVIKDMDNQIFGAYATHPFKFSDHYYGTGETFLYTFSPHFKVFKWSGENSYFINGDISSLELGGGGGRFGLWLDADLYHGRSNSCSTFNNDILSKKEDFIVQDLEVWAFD", "assay": "pull-down; GST-tagged proteins (14-35 μg) on glutathione agarose beads, 85 μg MBP-tagged protein, 2 h at 4 °C; 50 mM Tris-HCl pH 8, 600 mM NaCl, 5 mM β-mercaptoethanol, 10% glycerol; Western blot (GST, MBP)"}, "[2]": {"biological_target": "T2, GST-tagged NCOA7-AS (NCOA7-AS-WT-GST) (human, UniProt Q8NI08-5 1-219)", "T2 construct": "numbers count on: NCOA7-AS; Modified pET-30: MCS, TEV cleavage site, GST, His6; no cleavage is described for the GST-tagged proteins; also called GST-tagged-NCOA7-AS-WT; source: E. coli BL21 (DE3), purified (Ni-NTA, SEC); not shown: GST, C-terminal, kept", "T2 sequence (looked up)": "T1 sequence (looked up) with F14Y", "assay": "pull-down; GST-tagged proteins (14-35 μg) on glutathione agarose beads, 85 μg MBP-tagged protein, 2 h at 4 °C; 50 mM Tris-HCl pH 8, 600 mM NaCl, 5 mM β-mercaptoethanol, 10% glycerol; Western blot (GST, MBP)"}, "[3]": {"biological_target": "T3, MBP-tagged PX domain of SNX5 with F136A (MBP-PX-SNX5-F136A) (human, UniProt Q9Y5X3 25-172, F136A)", "T3 construct": "Phox homology (PX) domain of human sorting nexin 5; pMAL-PX-SNX5-F136A by site-directed mutagenesis; also called F136A mutant; source: E. coli BL21 (DE3), purified (amylose resin, SEC)", "T3 sequence (looked up)": "B1 chain with F112A", "assay": "microfluidic diffusional sizing; 57 nM FITC peptide tracked, MBP-PX-SNX5 proteins titrated 0.38-250 μM in PBS-10% glycerol; Fluidity One-W; hydrodynamic radius; one-site specific binding fit; apparent Kd"}, "[4]": {"biological_target": "B1", "assay": "microfluidic diffusional sizing; 57 nM FITC peptide tracked, MBP-PX-SNX5 proteins titrated 0.38-250 μM in PBS-10% glycerol; Fluidity One-W; hydrodynamic radius; one-site specific binding fit; apparent Kd"}, "[5]": {"biological_target": "B1", "assay": "pull-down; GST-tagged proteins (14-35 μg) on glutathione agarose beads, 85 μg MBP-tagged protein, 2 h at 4 °C; 50 mM Tris-HCl pH 8, 600 mM NaCl, 5 mM β-mercaptoethanol, 10% glycerol; Western blot (GST, MBP)"}},
  "note": "Positions count from the first letter of the chain named. Where no end group is shown, it is not given here.",
  "data": [
    {"binder": "B1", "values": [
      {"measurement": "binding result", "setting": "[1]", "value": "binds"},
      {"measurement": "binding result", "setting": "[2]", "value": "binds"}
    ]},
    {"binder": "B2", "values": [
      {"measurement": "Kd", "setting": "[3]", "value": 13.4, "unit": "µM"},
      {"measurement": "Kd", "setting": "[4]", "value": 1.4, "unit": "µM"}
    ]},
    {"binder": "B3", "values": [
      {"measurement": "binding result", "setting": "[5]", "value": "binds"}
    ]}
  ]
}
